The results in this text go back to article doi:10.1101/2020.10.16.343392 (bioRxiv, 2020).

This series deals with the molecule itself. The experiment in a line: crystal structure.

B1: EfgA (enhanced formaldehyde growth protein A) from Methylorubrum extorquens PA1 (natural protein)
chain: MHVTIEQAEKAIQAARAKAVELGTQMCIAIVDSGGNLKAFHRMDGAWVGSIDIAQKKAKTAVFFGMKTGQIGALSQPGGSLYGIEHSNQGLITFPGGIPIVDADGEMSGAIGVSGSSVENDDAVALAGASAIGDTELPDHPWRT
For the protein B1, the “stoichiometry N” value came out at 4.
